Two proteins from ChEMBL document CHEMBL1212772 can be followed below.

Bounds are passed on as bounds.

Substrate in data set [1]: CC(C)(O/N=C(\C(=O)N[C@@H]1C(=O)N2C(C(=O)[O-])=C(C[n+]3ccccc3)CS[C@H]12)c1csc(N)n1)C(=O)O
Description: Activity of Pseudomonas aeruginosa SPM-1.

Substrate in data set [2]: C[C@@H](O)[C@H]1C(=O)N2C(C(=O)O)=C(S[C@@H]3CN[C@H](CNS(N)(=O)=O)C3)[C@H](C)[C@H]12
Conditions: Acinetobacter baumannii.

Substrate in data set [3]: O=C(Cc1cccs1)N[C@@H]1C(=O)N2C(C(=O)[O-])=C(C[n+]3ccccc3)CS[C@H]12
As to conditions: Acinetobacter baumannii.

Substrate in data set [4]: C[C@@H](O)[C@H]1C(=O)N2C(C(=O)O)=C(SCCNC=N)C[C@H]12
Conditions: Acinetobacter baumannii.

Substrate in data set [5]: C[C@@H](O)[C@H]1C(=O)N2C(C(=O)O)=C(S[C@@H]3CN[C@H](C(=O)N(C)C)C3)[C@H](C)[C@H]12
Conditions: Acinetobacter baumannii.

Substrate in data set [6]: CC1(C)S[C@@H]2[C@H](NC(=O)Cc3ccccc3)C(=O)N2[C@H]1C(=O)O
Conditions: Acinetobacter baumannii.

Data set [7] concerns the target Pseudomonas aeruginosa. The data set is described as follows: Activity of Pseudomonas aeruginosa SPM-1.
For data set [8], the target named is Pseudomonas aeruginosa. The data set is described as follows: Kcat/Km ratio of Pseudomonas aeruginosa SPM-1.
Substrate in data set [9]: CC(C)(O/N=C(\C(=O)N[C@@H]1C(=O)N2C(C(=O)[O-])=C(C[n+]3ccccc3)CS[C@H]12)c1csc(N)n1)C(=O)O
The data set is described as follows: Kcat/Km ratio of Pseudomonas aeruginosa SPM-1.

Substrate in data set [10]: C[C@@H](O)[C@H]1C(=O)N2C(C(=O)O)=C(S[C@@H]3CN[C@H](CNS(N)(=O)=O)C3)[C@H](C)[C@H]12
Description: (§1) Activity of Acinetobacter baumannii OXA-23.

Substrate in data set [11]: O=C(Cc1cccs1)N[C@@H]1C(=O)N2C(C(=O)[O-])=C(C[n+]3ccccc3)CS[C@H]12
The data set is described as §1.

Substrate in data set [12]: CC(C)(O/N=C(\C(=O)N[C@@H]1C(=O)N2C(C(=O)[O-])=C(C[n+]3ccccc3)CS[C@H]12)c1csc(N)n1)C(=O)O
The description is as §1.

Substrate in data set [13]: C[C@@H](O)[C@H]1C(=O)N2C(C(=O)O)=C(SCCNC=N)C[C@H]12
Described as §1.

Substrate in data set [14]: C[C@@H](O)[C@H]1C(=O)N2C(C(=O)O)=C(S[C@@H]3CN[C@H](C(=O)N(C)C)C3)[C@H](C)[C@H]12
Described as §1.

Substrate in data set [15]: CC1(C)S[C@@H]2[C@H](NC(=O)Cc3ccccc3)C(=O)N2[C@H]1C(=O)O
The description is as §1.

Substrate in data set [16]: C[C@@H](O)[C@H]1C(=O)N2C(C(=O)O)=C(S[C@@H]3CN[C@H](CNS(N)(=O)=O)C3)[C@H](C)[C@H]12
Description: (§2) Activity of Pseudomonas aeruginosa AmpC.

Substrate in data set [17]: O=C(Cc1cccs1)N[C@@H]1C(=O)N2C(C(=O)[O-])=C(C[n+]3ccccc3)CS[C@H]12
The description is as §2.

Substrate in data set [18]: O=C(Cc1cccs1)N[C@@H]1C(=O)N2C(C(=O)O)=C(/C=C/c3ccc([N+](=O)[O-])cc3[N+](=O)[O-])CS[C@H]12
The data set is described as §2.

Substrate in data set [19]: C[C@@H](O)[C@H]1C(=O)N2C(C(=O)O)=C(SCCNC=N)C[C@H]12
The data set is described as §2.

Substrate in data set [20]: C[C@@H](O)[C@H]1C(=O)N2C(C(=O)O)=C(S[C@@H]3CN[C@H](C(=O)N(C)C)C3)[C@H](C)[C@H]12
The description is as §2.

Substrate in data set [21]: CC1(C)S[C@@H]2[C@H](NC(=O)Cc3ccccc3)C(=O)N2[C@H]1C(=O)O
Described as §2.

Substrate in data set [22]: C[C@@H](O)[C@H]1C(=O)N2C(C(=O)O)=C(S[C@@H]3CN[C@H](CNS(N)(=O)=O)C3)[C@H](C)[C@H]12
The data set is described as follows: (§3) Kcat/Km ratio of Pseudomonas aeruginosa AmpC.

Substrate in data set [23]: O=C(Cc1cccs1)N[C@@H]1C(=O)N2C(C(=O)[O-])=C(C[n+]3ccccc3)CS[C@H]12
The data set is described as §3.

Substrate in data set [24]: O=C(Cc1cccs1)N[C@@H]1C(=O)N2C(C(=O)O)=C(/C=C/c3ccc([N+](=O)[O-])cc3[N+](=O)[O-])CS[C@H]12
Described as §3.

Substrate in data set [25]: C[C@@H](O)[C@H]1C(=O)N2C(C(=O)O)=C(SCCNC=N)C[C@H]12
The data set is described as §3.

Substrate in data set [26]: C[C@@H](O)[C@H]1C(=O)N2C(C(=O)O)=C(S[C@@H]3CN[C@H](C(=O)N(C)C)C3)[C@H](C)[C@H]12
Described as §3.

Substrate in data set [27]: CC1(C)S[C@@H]2[C@H](NC(=O)Cc3ccccc3)C(=O)N2[C@H]1C(=O)O
The description is as §3.

Compound in data set [28]: C[C@@H](O)[C@H]1C(=O)N2C(C(=O)O)=C(S[C@@H]3CN[C@H](CNS(N)(=O)=O)C3)[C@H](C)[C@H]12
The data set is described as follows: (§4) Inhibition of Pseudomonas aeruginosa AmpC assessed as inhibition of nitrocefin hydrolysis.

Compound in data set [29]: C[C@@H](O)[C@H]1C(=O)N2C(C(=O)O)=C(SCCNC=N)C[C@H]12
Described as §4.

Compound in data set [30]: C[C@@H](O)[C@H]1C(=O)N2C(C(=O)O)=C(S[C@@H]3CN[C@H](C(=O)N(C)C)C3)[C@H](C)[C@H]12
Described as §4.

B1: Beta-lactamase OXA-23 (Acinetobacter baumannii), Q9L4P2 (protein)
chain: MNKYFTCYVVASLFLSGCTVQHNLINETPSQIVQGHNQVIHQYFDEKNTSGVLVIQTDKKINLYGNALSRANTEYVPASTFKMLNALIGLENQKTDINEIFKWKGEKRSFTAWEKDMTLGEAMKLSAVPVYQELARRIGLDLMQKEVKRIGFGNAEIGQQVDNFWLVGPLKVTPIQEVEFVSQLAHTQLPFSEKVQANVKNMLLLEESNGYKIFGKTGWAMDIKPQVGWLTGWVEQPDGKIVAFALNMEMRSEMPASIRNELLMKSLKQLNII
The Km is the concentration of substrate that gives half-maximal velocity. As usually defined, the kcat is the maximal rate divided by the concentration of active sites. One may read the kcat/Km as the turnover number divided by the Michaelis constant. For the protein B1, the Km in data set [1] turned out to be 120 µM; with Pseudomonas aeruginosa [7], 82 µM; in data set [10] it was 1.8 µM; in data set [11], 1300 µM; in data set [13] it was 1.3 µM; in data set [14] it was 2.5 µM. Moreover, the Km in [15] was found to be 13 µM. The kcat was 77 s⁻¹ in data set [1]; 45 s⁻¹ with Pseudomonas aeruginosa [7]; 0.2 s⁻¹ in data set [10]; 450 s⁻¹ in [11]; less than 0.0042 s⁻¹ in [12]; 0.92 s⁻¹ in data set [13]. Also, the kcat in data set [14] is 0.13 s⁻¹; in [15], 530 s⁻¹. Also, the kcat/Km was 110000 M⁻¹ s⁻¹ in data set [2]; 350000 M⁻¹ s⁻¹ in [3]; 50000 M⁻¹ s⁻¹ in [4]; 52000 M⁻¹ s⁻¹ in data set [5]; 4.1e+07 M⁻¹ s⁻¹ in [6]; 550000 M⁻¹ s⁻¹ with Pseudomonas aeruginosa [8]. Besides, in [9], the kcat/Km stood at 640000 M⁻¹ s⁻¹.

B2: Beta-lactamase (Pseudomonas aeruginosa (strain ATCC 15692 / PAO1 / 1C / PRS 101 / LMG12228)), P24735 (protein)
chain: MRDTRFPCLCGIAASTLLFATTPAIAGEAPADRLKALVDAAVQPVMKANDIPGLAVAISLKGEPHYFSYGLASKEDGRRVTPETLFEIGSVSKTFTATLAGYALTQDKMRLDDRASQHWPALQGSRFDGISLLDLATYTAGGLPLQFPDSVQKDQAQIRDYYRQWQPTYAPGSQRLYSNPSIGLFGYLAARSLGQPFERLMEQQVFPALGLEQTHLDVPEAALAQYAQGYGKDDRPLRVGPGPLDAEGYGVKTSAADLLRFVDANLHPERLDRPWAQALDATHRGYYKVGDMTQGLGWEAYDWPISLKRLQAGNSTPMALQPHRIARLPAPQALEGQRLLNKTGSTNGFGAYVAFVPGRDLGLVILANRNYPNAERVKIAYAILSGLEQQGKVPLKR
B2: the kcat was less than 0.006 s⁻¹ in [16], 150 s⁻¹ in data set [18], less than 0.03 s⁻¹ in [19] and less than 0.006 s⁻¹ in data set [20]. In addition, the Km in data set [17] was 350 µM; in data set [18], 31 µM; in data set [21] it was 14 µM; in data set [28], 1.8 µM; in data set [29], 1.6 µM; in data set [30] it was 1.4 µM. Further, the kcat/Km is less than 3300 M⁻¹ s⁻¹ in data set [22]; 270000 M⁻¹ s⁻¹ in [23]; 4.8e+06 M⁻¹ s⁻¹ in [24]; less than 4.8e+06 M⁻¹ s⁻¹ in data set [25]; less than 4300 M⁻¹ s⁻¹ in [26]; 3.1e+06 M⁻¹ s⁻¹ in data set [27].
